How the values were obtained:
[1] = target: T1, recombinant human LRP6-Fc chimera (human, UniProt O75581 20-1370); experiment: multipoint competitive ELISA; human LRP6-Fc chimera titrated against OD450 of the IgG1; non-linear regression
T1 construct: extracellular domain; also called human LRP6 chimera; not shown: Fc part of the chimera
T1 sequence (looked up): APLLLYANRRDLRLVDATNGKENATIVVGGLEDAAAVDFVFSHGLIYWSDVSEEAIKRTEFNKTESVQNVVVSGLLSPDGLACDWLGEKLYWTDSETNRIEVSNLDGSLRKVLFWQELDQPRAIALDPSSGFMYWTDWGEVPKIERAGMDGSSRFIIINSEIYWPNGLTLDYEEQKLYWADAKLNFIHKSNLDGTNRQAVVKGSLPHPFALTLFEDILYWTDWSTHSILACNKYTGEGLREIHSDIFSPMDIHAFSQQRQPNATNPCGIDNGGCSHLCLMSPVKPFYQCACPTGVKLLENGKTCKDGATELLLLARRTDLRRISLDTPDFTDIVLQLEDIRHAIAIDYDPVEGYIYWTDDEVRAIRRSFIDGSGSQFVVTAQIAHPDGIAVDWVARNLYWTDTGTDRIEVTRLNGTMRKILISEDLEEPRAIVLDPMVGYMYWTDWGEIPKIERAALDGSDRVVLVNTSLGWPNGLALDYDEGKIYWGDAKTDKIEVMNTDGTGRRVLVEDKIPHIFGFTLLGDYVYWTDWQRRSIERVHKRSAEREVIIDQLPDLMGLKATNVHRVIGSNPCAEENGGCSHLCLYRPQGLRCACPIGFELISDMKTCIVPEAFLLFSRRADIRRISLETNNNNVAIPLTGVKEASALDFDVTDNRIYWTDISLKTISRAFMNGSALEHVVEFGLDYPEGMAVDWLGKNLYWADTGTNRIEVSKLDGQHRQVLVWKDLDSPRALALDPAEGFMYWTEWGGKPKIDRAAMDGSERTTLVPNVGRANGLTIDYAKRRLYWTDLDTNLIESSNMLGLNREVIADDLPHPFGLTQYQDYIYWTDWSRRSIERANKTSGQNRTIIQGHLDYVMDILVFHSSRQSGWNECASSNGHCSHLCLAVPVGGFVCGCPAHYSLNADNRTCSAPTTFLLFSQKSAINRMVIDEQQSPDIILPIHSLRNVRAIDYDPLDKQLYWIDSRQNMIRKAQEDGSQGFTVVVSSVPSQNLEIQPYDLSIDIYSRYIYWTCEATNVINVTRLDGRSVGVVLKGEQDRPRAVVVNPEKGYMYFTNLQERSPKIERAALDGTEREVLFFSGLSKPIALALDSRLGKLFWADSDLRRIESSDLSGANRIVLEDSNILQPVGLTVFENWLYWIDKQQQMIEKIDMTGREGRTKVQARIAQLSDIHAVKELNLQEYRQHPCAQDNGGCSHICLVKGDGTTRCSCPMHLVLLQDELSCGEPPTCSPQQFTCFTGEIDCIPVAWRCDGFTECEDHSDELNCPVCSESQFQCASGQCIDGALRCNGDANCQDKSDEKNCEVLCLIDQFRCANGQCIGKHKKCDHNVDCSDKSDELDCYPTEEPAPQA
Procedure: (§1) The full length IgG1s were purified and a single-point ELISA was done to determine the specificity of the antibodies. […] A multipoint competitive ELISA was used to determine the relative affinities of the antibodies to the recombinant antigen.
Table 3 reports the IC50 of LRP6 antibodies as determined by competitive ELISA. The log of the recombinant human LRP6-Fc chimera concentration (x-axis) was plotted against the OD450 reading of the antibody (y-axis). The IC50 was determined by non-linear regression analysis.

[2] = target: T2, recombinant mouse LRP5-His chimera (mouse, UniProt Q91VN0 31-1383); experiment: single-point ELISA, IgG1 on coated antigen
T2 construct: extracellular domain; not shown: His tag
T2 sequence (looked up): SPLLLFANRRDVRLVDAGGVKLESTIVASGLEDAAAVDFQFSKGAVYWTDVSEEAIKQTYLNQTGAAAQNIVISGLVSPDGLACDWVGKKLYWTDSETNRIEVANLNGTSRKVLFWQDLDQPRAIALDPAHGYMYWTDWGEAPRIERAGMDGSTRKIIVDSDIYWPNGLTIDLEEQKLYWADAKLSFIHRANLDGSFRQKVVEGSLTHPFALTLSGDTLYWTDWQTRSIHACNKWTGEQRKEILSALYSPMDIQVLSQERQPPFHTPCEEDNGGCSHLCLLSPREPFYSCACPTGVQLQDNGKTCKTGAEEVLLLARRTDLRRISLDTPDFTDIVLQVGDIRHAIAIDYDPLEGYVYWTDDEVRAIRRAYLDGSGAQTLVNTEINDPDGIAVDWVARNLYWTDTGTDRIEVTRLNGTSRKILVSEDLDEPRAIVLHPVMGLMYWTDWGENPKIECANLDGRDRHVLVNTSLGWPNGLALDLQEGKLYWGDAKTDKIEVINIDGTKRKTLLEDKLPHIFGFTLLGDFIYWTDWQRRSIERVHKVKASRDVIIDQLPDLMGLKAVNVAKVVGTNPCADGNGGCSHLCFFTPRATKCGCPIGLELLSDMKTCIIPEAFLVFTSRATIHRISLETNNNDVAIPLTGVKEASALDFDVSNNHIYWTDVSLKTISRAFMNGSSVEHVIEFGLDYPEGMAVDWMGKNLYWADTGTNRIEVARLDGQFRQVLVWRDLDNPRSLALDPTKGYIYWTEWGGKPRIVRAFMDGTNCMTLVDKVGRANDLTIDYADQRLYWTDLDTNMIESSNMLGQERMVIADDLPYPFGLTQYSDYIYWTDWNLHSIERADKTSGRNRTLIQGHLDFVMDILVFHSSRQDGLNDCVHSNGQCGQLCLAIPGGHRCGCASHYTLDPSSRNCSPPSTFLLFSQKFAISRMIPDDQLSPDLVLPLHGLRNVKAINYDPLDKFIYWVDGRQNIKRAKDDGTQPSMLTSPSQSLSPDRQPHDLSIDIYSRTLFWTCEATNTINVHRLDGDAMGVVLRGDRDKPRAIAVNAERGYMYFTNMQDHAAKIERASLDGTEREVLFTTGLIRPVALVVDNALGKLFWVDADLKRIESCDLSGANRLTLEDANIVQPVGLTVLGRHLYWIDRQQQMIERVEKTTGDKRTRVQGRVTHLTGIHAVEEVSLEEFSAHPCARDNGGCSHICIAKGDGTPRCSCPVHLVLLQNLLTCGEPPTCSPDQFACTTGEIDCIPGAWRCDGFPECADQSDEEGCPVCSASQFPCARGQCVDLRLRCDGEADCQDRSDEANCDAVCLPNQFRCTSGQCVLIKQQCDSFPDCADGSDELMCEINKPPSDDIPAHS
Procedure: FIGS. 1a and 1b show LRP six antibodies. (A) The amino acid sequences of the complementarity determining regions (CDR) of the heavy (H) and the light (L) chains are presented. The antibodies were grouped into unique epitopes as determined by competitive ELISAs. (B) Single-point ELISAs were performed on 96-well Maxisorb immune plates coated with the […] of mouse LRP5, mouse LRP6 and human LRP6 chimeras. The plates were incubated with the purified Fab or IgG1 at the concentrations indicated followed by incubation with horseradish peroxidase (HRP)-conjugated anti-kappa antibody. The wells were washed eight times followed by incubation with 3,3′,5,5′-tetramethylbenzidine/H₂O₂ peroxidase (TMB) substrate for 5-10 min. The reaction was stopped by adding one M H₃PO₄ and the absorbance was measured spectrometrically at 450 nm in a microtiter plate reader.
as §1

[3] = target: full-length LRP6 receptor expressed on the surface of cell lines (UniProt O75581 20-1613, limits assumed); experiment: cell-based or functional assay

Row | Binder | IC50 [1] [nM] | binding result [2] | functional IC50, Wnt3aCM-stimulated TOPflash reporter activity (MDAMB231, U2OS, H23 cells) [3] [nM] | functional IC50, Wnt3aCM-stimulated TOPflash reporter activity (MDAMB231 cells) [3] [nM]
1 | LRP6-G3 IgG1 antibody (antibody, V domains shown, Tested as purified full length IgG1) VH: EVQLVESGGGLVQPGGSLRLSCAASGFNISSYYIHWVRQAPGKGLEWVASIYSSYGYTSYADSVKGRFTISADTSKNTAYLQMNSLRAEDTAVYYCARTVRGSKKPYFSGWAMDYWGQGTLVTVSS VL: DIQMTQSPSSLSASVGDRVTITCRASQSVSSAVAWYQQKPGKAPKLLIYSASSLYSGVPSRFSGSRSGTDFTLTISSLQPEDFATYYCQQYYWPITFGQGTKVEIKR | 10.2 | no binding |  | 
2 | LRP6-G9 IgG1 antibody (antibody, V domains shown, Tested as purified full length IgG1) VH: EVQLVESGGGLVQPGGSLRLSCAASGFNIYSYYIHWVRQAPGKGLEWVASIYSSYSYTSYADSVKGRFTISADTSKNTAYLQMNSLRAEDTAVYYCARTVRGSKKPYFSGWAMDYWGQGTLVTVSS VL: DIQMTQSPSSLSASVGDRVTITCRASQSVSSAVAWYQQKPGKAPKLLIYSASSLYSGVPSRFSGSRSGTDFTLTISSLQPEDFATYYCQQYYWPITFGQGTKVEIKR | 6.03 | no binding |  | 
3 | LRP6-A1 IgG1 antibody (antibody, V domains shown, Tested as purified full length IgG1; Synthetic antibody on a human framework, detected with anti-kappa antibody) VH: EVQLVESGGGLVQPGGSLRLSCAASGFNLSYYYIHWVRQAPGKGLEWVASIYSSYGYTSYADSVKGRFTISADTSKNTAYLQMNSLRAEDTAVYYCARTVRGSKKPYFSGWAMDYWGQGTLVTVSS VL: DIQMTQSPSSLSASVGDRVTITCRASQSVSSAVAWYQQKPGKAPKLLIYSASSLYSGVPSRFSGSRSGTDFTLTISSLQPEDFATYYCQQYYWPITFGQGTKVEIKR | 9.58 | no binding |  | 
4 | LRP6-A10 IgG1 antibody (antibody, V domains shown, Tested as purified full length IgG1) VH: EVQLVESGGGLVQPGGSLRLSCAASGFNISYSSIHWVRQAPGKGLEWVAYISSYYGYTYYADSVKGRFTISADTSKNTAYLQMNSLRAEDTAVYYCARAHYFPWAGAMDYWGQGTLVTVSS VL: DIQMTQSPSSLSASVGDRVTITCRASQSVSSAVAWYQQKPGKAPKLLIYSASSLYSGVPSRFSGSRSGTDFTLTISSLQPEDFATYYCQQYSWGPFTFGQGTKVEIKR | 6.29 | no binding | < 0.3 | 
5 | LRP6-B6 IgG1 antibody (antibody, V domains shown, Tested as purified full length IgG1) VH: EVQLVESGGGLVQPGGSLRLSCAASGFNISYSSIHWVRQAPGKGLEWVASISPYYGYTYYADSVKGRFTISADTSKNTAYLQMNSLRAEDTAVYYCARSSYFPWFSAMDYWGQGTLVTVSS VL: DIQMTQSPSSLSASVGDRVTITCRASQSVSSAVAWYQQKPGKAPKLLIYSASSLYSGVPSRFSGSRSGTDFTLTISSLQPEDFATYYCQQYYFLITFGQGTKVEIKR |  | no binding |  | 
6 | LRP6-A10 Fab protein (Fab, V domains shown) VH: EVQLVESGGGLVQPGGSLRLSCAASGFNISYSSIHWVRQAPGKGLEWVAYISSYYGYTYYADSVKGRFTISADTSKNTAYLQMNSLRAEDTAVYYCARAHYFPWAGAMDYWGQGTLVTVSS VL: DIQMTQSPSSLSASVGDRVTITCRASQSVSSAVAWYQQKPGKAPKLLIYSASSLYSGVPSRFSGSRSGTDFTLTISSLQPEDFATYYCQQYSWGPFTFGQGTKVEIKR |  |  |  | < 0.3

Reference: patent US20220281969A1 (ANTLERA THERAPEUTICS, published 2022)
